Results reported in patent publication US7118879.
Read-outs that look alike come from different tables or passages of the source.

Tests used:
[1] = biological target: anhydro-trypsin (agarose-immobilized) (UniProt P00760); assay: 10 µl immobilized anhydro-trypsin slurry, 4 h
[2] = biological target: anhydro-trypsin (agarose-immobilized) (UniProt P00760); assay: 2 µl immobilized anhydro-trypsin slurry, 4 h
[3] = biological target: anhydro-trypsin (agarose-immobilized) (UniProt P00760); assay: 2 µl immobilized anhydro-trypsin slurry, 1 h
[4] = biological target: trypsin (active, immobilized on beads, or in solution) (UniProt P00760); assay: trypsin beads, TBS pH 7.5, pH 2.2 elution
[5] = biological target: anhydro-trypsin (agarose-immobilized) (UniProt P00760); assay: 5 µl immobilized anhydro-trypsin slurry, 2 h
[6] = biological target: anhydro-trypsin (agarose-immobilized) (UniProt P00760); assay: 5 µl immobilized anhydro-trypsin slurry, 1 h
[7] = biological target: trypsin (active, immobilized on beads, or in solution) (UniProt P00760); assay: trypsin beads, CBS pH 6.5, pH 2.2 elution
[8] = biological target: anhydro-trypsin (agarose-immobilized) (UniProt P00760); assay: 10 µl immobilized anhydro-trypsin slurry, 1 h
[9] = biological target: anhydro-trypsin (agarose-immobilized) (UniProt P00760); assay: 5 µl immobilized anhydro-trypsin slurry, 4 h
[10] = biological target: anhydro-trypsin (agarose-immobilized) (UniProt P00760); assay: 10 µl immobilized anhydro-trypsin slurry, 2 h
[11] = biological target: streptavidin (agarose-immobilized) (UniProt P22629); assay: 5 µl immobilized streptavidin slurry, 1 h
[12] = biological target: anhydro-trypsin (agarose-immobilized) (UniProt P00760); assay: 2 µl immobilized anhydro-trypsin slurry, 2 h
[13] = biological target: streptavidin (agarose-immobilized) (UniProt P22629); assay: 5 µl immobilized streptavidin slurry, 2 h
[14] = biological target: streptavidin (agarose-immobilized) (UniProt P22629); assay: 5 µl immobilized streptavidin slurry, 4 h
[15] = biological target: human neutrophil elastase (immobilized on Reacti-Gel agarose beads, or free) (human) (UniProt P08246); assay: acid-eluted from HNE beads
[16] = biological target: human Cathepsin G (immobilized on agarose beads) (human) (UniProt P08311); assay: Cat-G beads, all pH eluates
[17] = biological target: human Cathepsin G (immobilized on agarose beads) (human) (UniProt P08311); assay: Cat-G beads, pH 3.0 eluate
[18] = biological target: human Cathepsin G (immobilized on agarose beads) (human) (UniProt P08311); assay: Cat-G beads, pH 4.5 eluate
[19] = biological target: human Cathepsin G (immobilized on agarose beads) (human) (UniProt P08311); assay: Cat-G beads, pH 6.0 eluate
[20] = biological target: human Cathepsin G (immobilized on agarose beads) (human) (UniProt P08311); assay: Cat-G beads, final TBS-TWEEN wash
[21] = biological target: human Cathepsin G (immobilized on agarose beads) (human) (UniProt P08311); assay: Cat-G beads, pH 7.0 eluate
[22] = biological target: human Cathepsin G (immobilized on agarose beads) (human) (UniProt P08311); assay: Cat-G beads, pH 5.0 eluate
[23] = biological target: human Cathepsin G (immobilized on agarose beads) (human) (UniProt P08311); assay: Cat-G beads, pH 4.0 eluate
[24] = biological target: human Cathepsin G (immobilized on agarose beads) (human) (UniProt P08311); assay: Cat-G beads, pH 2.5 eluate
[25] = biological target: human Cathepsin G (immobilized on agarose beads) (human) (UniProt P08311); assay: Cat-G beads, pH 5.5 eluate
[26] = biological target: human Cathepsin G (immobilized on agarose beads) (human) (UniProt P08311); assay: Cat-G beads, pH 3.5 eluate
[27] = biological target: human Cathepsin G (immobilized on agarose beads) (human) (UniProt P08311); assay: Cat-G beads, pH 2.0 eluate
[28] = biological target: anhydro-trypsin (agarose-immobilized) (UniProt P00760); assay: anhydrotrypsin beads, experiment 2
[29] = biological target: anhydro-trypsin (agarose-immobilized) (UniProt P00760); assay: 2 µl immobilized anhydro-trypsin, dot blot
[30] = biological target: human neutrophil elastase (immobilized on Reacti-Gel agarose beads, or free) (human) (UniProt P08246); assay: HNE beads, sum of pH washes
[31] = biological target: human neutrophil elastase (immobilized on Reacti-Gel agarose beads, or free) (human) (UniProt P08246); assay: HNE beads, pH 4.0 wash
[32] = biological target: trypsin (active, immobilized on beads, or in solution) (UniProt P00760); assay: trypsin beads
[33] = biological target: trypsin (active, immobilized on beads, or in solution) (UniProt P00760); assay: trypsin beads; remark: listed apart in the source
[34] = biological target: human neutrophil elastase (immobilized on Reacti-Gel agarose beads, or free) (human) (UniProt P08246); assay: HNE beads, pH 7.0 wash
[35] = biological target: human neutrophil elastase (immobilized on Reacti-Gel agarose beads, or free) (human) (UniProt P08246); assay: HNE beads, pH 2.2 elution
[36] = biological target: trypsin (active, immobilized on beads, or in solution) (UniProt P00760); assay: acid-eluted from trypsin beads
[37] = biological target: anhydro-trypsin (agarose-immobilized) (UniProt P00760); assay: 10 µl immobilized anhydro-trypsin, dot blot
[38] = biological target: anhydro-trypsin (agarose-immobilized) (UniProt P00760); assay: 5 µl immobilized anhydro-trypsin, dot blot
[39] = biological target: M13MB48 phage (BPTI fused to the mature M13 gene VIII major coat protein) (Bos taurus / phage M13); assay: titer after normal rabbit IgG + protein A beads; batch 4
[40] = biological target: M13MB48 phage (BPTI fused to the mature M13 gene VIII major coat protein) (Bos taurus / phage M13); assay: titer after normal rabbit IgG + protein A beads; batch 5
[41] = biological target: M13mp18 phage (wild type, non-display phage); assay: titer after normal rabbit IgG + protein A beads
[42] = biological target: M13MB48 phage (BPTI fused to the mature M13 gene VIII major coat protein) (Bos taurus / phage M13); assay: titer after normal rabbit IgG; batch 4
[43] = biological target: M13MB48 phage (BPTI fused to the mature M13 gene VIII major coat protein) (Bos taurus / phage M13); assay: titer after normal rabbit IgG; batch 5
[44] = biological target: M13mp18 phage (wild type, non-display phage); assay: titer after normal rabbit IgG
[45] = biological target: anhydro-trypsin (agarose-immobilized) (UniProt P00760); assay: anhydrotrypsin beads, experiment 1
[46] = biological target: anhydro-trypsin (agarose-immobilized) (UniProt P00760); assay: titer after anhydrotrypsin beads
[47] = biological target: protein A (agarose beads) (UniProt P38507); assay: titer after protein A beads alone; batch 5
[48] = biological target: human neutrophil elastase (immobilized on Reacti-Gel agarose beads, or free) (human) (UniProt P08246); assay: HNE beads
[49] = biological target: anhydro-trypsin (agarose-immobilized) (UniProt P00760); assay: acid-eluted from anhydrotrypsin beads, experiment 1
[50] = biological target: streptavidin (agarose-immobilized) (UniProt P22629); assay: titer after streptavidin beads
[51] = biological target: human neutrophil elastase (immobilized on Reacti-Gel agarose beads, or free) (human) (UniProt P08246); assay: pH elution of phage from HNE beads
[52] = biological target: anhydro-trypsin (agarose-immobilized) (UniProt P00760); assay: anhydrotrypsin beads
[53] = biological target: anhydro-trypsin (agarose-immobilized) (UniProt P00760); assay: eluted from anhydrotrypsin beads
[54] = biological target: trypsin (active, immobilized on beads, or in solution) (UniProt P00760); assay: eluted from trypsin beads

Chain of human Cathepsin G (immobilized on agarose beads) (human) (P08311 21-244 limits assumed): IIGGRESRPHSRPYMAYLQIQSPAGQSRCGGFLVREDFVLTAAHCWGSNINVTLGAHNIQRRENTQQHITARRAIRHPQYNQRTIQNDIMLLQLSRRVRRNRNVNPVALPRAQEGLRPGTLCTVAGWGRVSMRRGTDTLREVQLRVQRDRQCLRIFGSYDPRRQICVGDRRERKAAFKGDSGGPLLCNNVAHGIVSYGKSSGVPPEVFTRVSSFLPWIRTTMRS
Chain of human neutrophil elastase (immobilized on Reacti-Gel agarose beads, or free) (human) (P08246 30-247 limits assumed): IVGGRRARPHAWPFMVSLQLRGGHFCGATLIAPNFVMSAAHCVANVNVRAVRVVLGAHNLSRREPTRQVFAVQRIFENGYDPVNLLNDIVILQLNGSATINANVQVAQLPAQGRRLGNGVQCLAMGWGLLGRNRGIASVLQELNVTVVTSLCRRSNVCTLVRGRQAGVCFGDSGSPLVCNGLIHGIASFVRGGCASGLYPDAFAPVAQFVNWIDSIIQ
Chain of trypsin (active, immobilized on beads, or in solution) (P00760 24-246): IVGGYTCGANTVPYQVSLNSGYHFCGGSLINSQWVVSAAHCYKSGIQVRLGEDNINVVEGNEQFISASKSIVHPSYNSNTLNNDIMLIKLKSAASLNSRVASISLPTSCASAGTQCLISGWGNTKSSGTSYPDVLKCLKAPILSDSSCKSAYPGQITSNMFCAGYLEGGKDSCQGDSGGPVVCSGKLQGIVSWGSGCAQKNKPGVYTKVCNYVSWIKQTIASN
Chain of streptavidin (agarose-immobilized) (P22629 37-163 limits assumed): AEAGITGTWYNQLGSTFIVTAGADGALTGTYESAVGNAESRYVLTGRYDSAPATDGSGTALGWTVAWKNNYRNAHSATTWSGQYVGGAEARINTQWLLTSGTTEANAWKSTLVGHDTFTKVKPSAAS

Work on “MK phage (M13-MB1/2-delta-NarI with kanamycin-resistance gene; no displayed domain)” yielded a percent residual titer [1] of 106%, a percent residual titer [2] of 95% and a percent residual titer [3] of 97%. The % of input phage recovered [4] was 0.00034%, the total pfu recovered in elution buffer [4] was 1.48e+06 pfu and the percent residual titer [5] was 111%. For the same substance, the percent residual titer [6] was 110%, the % of input phage recovered [7] was 0.00028% and the total pfu recovered in elution buffer [7] was 1.35e+06 pfu. The percent residual titer [8] was 99%, the percent residual titer [9] was 96% and the percent residual titer [10] was 93%. The percent residual titer [11] was 106%, the percent residual titer [12] was 103% and the percent residual titer [13] was 96%. It also gave a percent residual titer [14] of 98%.
Substance “M13.3X7 phage (BPTI:VIII fusion with one EGGGS linker)” has an eluted phage, % of input [15] of 0.001%.
For “MA-ITI phage (M13 phage displaying human ITI domain I fused to the gene III protein) (from UniProt P02760 227-281)”, the fraction of input, SUM of pH elution fractions [16] was 3e-05, the total pfu, SUM of pH elution fractions [16] was 1.4e+07 pfu and the fraction of input [17] was 7.8e-07. It also gave a fraction of input [18] of 1.5e-06, a fraction of input [19] of 5e-06 and a fraction of input [20] of 1.5e-05. For the same substance, the total pfu in sample [20] was 7.1e+06 pfu, the fraction of input [21] was 1.3e-05 and the fraction of input [22] was 2.4e-06. The fraction of input [23] was 9.6e-07, the fraction of input [24] was 5.9e-07 and the fraction of input [25] was 2.6e-06. It also gave a fraction of input [26] of 9.6e-07 and a fraction of input [27] of 7e-07.
“BPTI-III MK phage (M13 phage displaying mature BPTI fused to the gene III protein)” was tested, and the binding relative to M13mp18 [28] was 40 fold, the percent of total phage recovered in elution buffer [29] was 5% and the percentage of input phage recovered (all fractions) [30] was 0.008%. For the same substance, the % of input phage [31] was 0.001%, the total pfu in fraction [31] was 30000 pfu and the percent residual titer [5] was 40%. For the same substance, the eluted phage, % of input [15] was 0.005%, the relative binding (to M13MP18) [32] was 5000 fold and the relative binding (to M13MP18) [33] was 2000 fold. It also gave a % of input phage [34] of 0.002%, a total pfu in fraction [34] of 50000 pfu and a % of input phage recovered [35] of 0.005%. The percent residual titer [8] was 40%, the percent residual titer [10] was 30% and the eluted phage, % of input [36] was 1%. The percent of total phage recovered in elution buffer [37] was 50% and the percent of total phage recovered in elution buffer [38] was 20%.
Substance “normal rabbit serum / IgG purified from normal rabbit pre-immune serum (antibody)” has a % of input pfu [39] of 121%, a % of input pfu [40] of 110% and a % of input pfu [41] of 88%. The % of input pfu [42] was 125%, the % of input pfu [43] was 105% and the % of input pfu [44] was 104%.
Substance “M13MB48 phage (BPTI fused to the mature M13 gene VIII major coat protein)” has a binding relative to M13MP18 [45] of 56 fold, an eluted phage, % of input [15] of 0.009% and a % of input pfu post incubation [46] of 58%. For the same substance, the relative binding (to M13MP18) [33] was 260 fold, the % of input pfu [47] was 58% and the relative binding (to M13MP18) [48] was 30 fold. For the same substance, the eluted phage, % of input [36] was 0.13%, the eluted phage, % of input [49] was 11.2% and the % of input pfu post incubation [50] was 98%.
“BPTI(K15V,R17L)-III MA phage (designed binder)” gave a pH of elution peak [51] of 4.25 pH.
For “M13.3X11 phage (BPTI:VIII fusion with three linker units)”, the eluted phage, % of input [15] was 0.002%, the relative binding (to M13MP18) [32] was 1200 fold and the relative binding (to M13MP18) [33] was 1600 fold. The relative binding (to M13MP18) [52] was 92 fold, the eluted phage, % of input [53] was 9.2% and the eluted phage, % of input [54] was 0.27%. For the same substance, the relative binding (to M13MP18) [48] was 6.7 fold and the eluted phage, % of input [36] was 0.8%.
